Test results reported in the supplement of paper PMC9170038.

Test system: MS2 coat protein
Assay: apparent KD of MS2 coat protein; higher = weaker reporter binding
Settings: Eterna round: R107
Method in brief: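 With or without constant ligand, designed RNA switches in 100 mM Tris-HCl pH 7.5, 80 mM KCl and 4 mM MgCl2 were titrated with SNAP-549-labelled MS2 coat protein. Concentrations went up in twofold steps from 0.7 or 1.5 nM to 3 µM. The switches had been transcribed on-chip from Illumina sequencing clusters, and apparent KD is the per-design median of normalised cluster binding-curve fits.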

[1] = input ligand: theophylline 20 uM
[2] = input ligand: theophylline 2 mM
[3] = input ligand: tryptophan 2.4 mM

Sequence	apparent KD of MS2 coat protein (input ligand: arginine 13.2 mM) [nM]	apparent KD of MS2 coat protein (input ligand: none) [nM]	apparent KD of MS2 coat protein [1] [nM]	apparent KD of MS2 coat protein [2] [nM]	apparent KD of MS2 coat protein [3] [nM]
GGAUAGGACACGGCCGCCACUAUCUAGGAUACUAGCAACAUUUGGGUACUUGAGGAUCACCCAAGUAGGACCGGGUGUCCUAUCG	82.7	170	226	253	307
GGAUAGGACAGAAGGAGCGACAUGAGGAUCACCCAUGUCUACUACGUCGAAAGACGCUCAUGUCAGGUAGGUCGCUGUCCUAUCG [#28 Exclusion - Arginine B]	70.9	241	263	458	250
GGAUGAAACUGAAGGAGCGAGAUCACAAGAAUGGGUCAAACAUGAGGAUCACCCAUGUAAUCUCAGGUAGGUCGCAGUGUCCCUU [Exclusion Arginine B GF 11]	40.1	40.4	80.5	55.1	46.2
GGCACAUAGUCGGCCGCCACUAGAUUUUAGUGGAAUAACAUGAGGAUCACCCAUGUAUUUGGGACUAGGACCGGGACUAUGUGCC [Hyena]	34.5		43.2	38	
GGGACACCGAGAAGGAGCGCAUCCAAACCACACAUGAGGAUCACCCAUGUAUAAAUAUGCAUGCAGGUAGGUCGCUCGGCGUCUC [Orordionbi]	76.5	120	112	134	111
GGGAGGGAGGCGGCCGCCACUGAUUUUCAUAUAUAUAUAACAUGAGGAUCACCCAUGUGGAUAUACAGGACCGGGCCUUUUUUUU [aaaH]	17.6		30.1	19.1	
GGGCGCUAUCCCGCGAGGGAUAGCGUUCGUCGAGGACCGGUACGGCCGCCACUCGAACGAGUGGUGACAUGAGGAUCACCCAUGU [Oaa]	39		55.2	55.7	
GGGUACAUCACGGCCGCCACUCAUGUAAAUACAUGAGGAUCACCCAUGUCGAUGGAGACAUCGGAGAGGACCGGGUGAUGUACCG	187		394	620	
GGGUAUGAUCCGGAUACCAGCGAACAUGAGGAUCACCCAUGUGACCUAAGAUAGGCUAAACGCCCUUGGCAGCCGAGAUUGCGUU [Same State Theophylline B GF7]	32.4		49.7		41
GGGUGGUAGGCGGCCGCCACUGAUUUUCAUUUAUAGAUGACAUGAGGAUCACCCAUGUUUAUGUGCAGGACCGGGCCUGUUGUGG [aaaS]	43.1	98.7	74.2	113	77.6
GGUACAUGAGGAUCACCCAUGUGUCAUGAUACCAGACAUGAAAAUGUCCCUUGGCAGCAUGCCUGAUGGCCGCGUUUAGCGGCCG [Liskovec]	15.8	15.7	19.5	20.7	16.2
GGUAGCAGGACUGAUACCAGUCCAGCGAAUCAUACGACGCAACAUGAGGAUCACCCAUGUGACCCUUGGCAGCAGUCUGCUACCG [Same State Theophylline B GF 29]	28.9		23		25.7
GGUCACCUAUCCUCAUUGGUGACCCUGGAAGGAGCGAGCGAGAGCUCAGGUAGGUCGCCAGAACAUGAGGAUCACCCAUGUAAUA [(A)''-(M)'-(A)'(Arg1)-(Arg2)-(M1)-(M2)_Design12]	43.4	94.9	120	111	70.1
GGUCUCGCGGGCGAUACCAGCUUGAUCGUACUGGCCUGGUACAUGAGGAUCACCCAUGUAAGCCCUUGGCAGCGCGCGCGAGACC [#1 Exclusion - Theophylline B Attempt #5 (HarryS)]	10.4	10.6	16.4	32.1	11.9
GGUCUCUGGAGCGAUACCAGCUUGAUCGUACUAGCCAGGUACAUGAGGAUCACCCAUGUAAGCCCUUGGCAGCGCUCCAGAGACC [#1 Exclusion - Theophylline B Attempt #9 (HarryS)]	8.2	9.25	14.6	22.3	10.5
GGUGGGACUUGUGAUACCAGCCCAAUUCGAAUCGAAUUGCACAUGAGGAUCACCCAUGUCGGCCCUUGGCAGCAUGAGUAUUUAU [Ricerixe]	152		149		313
GGUGUUACGUCGGCCGCCACUAUACUACAUGAGGAUCACCCAUGUCAUCCCUUCAAUUGGUAGCCUAGGACCGGGACAGAAUUCG [theeternabot_exclusion_MS2_Trp_B_8]	33.2		55.2	43.8	
GGUUACUCUACGGCCGCCACUGAACAUGAGGAUCACCCAUGUAAUGUUCAGUAGUCUUUAGACAACAGGACCGGGUAGUGUAACC [Tryptophan B 6]	109		236	271	
GGUUACUCUACGGCCGCCACUGUAAUGUAAAGAUUCCUGUACAUGACAUGAGGAUCACCCAUGUGCAGGACCGGGUAGUGUAACC [Tryptophan B 20]	126		208	225	

Sequence	apparent KD of MS2 coat protein (input ligand: arginine 13.2 mM) [nM]	apparent KD of MS2 coat protein (input ligand: none) [nM]	apparent KD of MS2 coat protein [1] [nM]	apparent KD of MS2 coat protein [2] [nM]	apparent KD of MS2 coat protein [3] [nM]
GGUUACUCUACGGCCGCCACUGUUAAAUAAUAAACCUGUACAUAAACAUGAGGAUCACCCAUGUACAGGACCGGGUAGUGUAACC [Tryptophan B 8]	27.6		41	35	
GGUUGAUGGUCGGCCGCCACUGUUGGUGCCAUGAGUUAAGUAUAGCACAUGAGGAUCACCCAUGUCAGGACCGGGACUCUACCCG [theeternabot_exclusion_MS2_Trp_B_16]	15.1		19.6	20.9	
GGUUGGUCGCAGGAUACCAGUCCACCCGUGAUACUGCUAAACAUGAGGAUCACCCAUGUCGACCCUUGGCAGCCUGUCCAUGCGU [theeternabot_exclusion_MS2_Theo_B_45]	18.8		27.3		17.1
GUACAUGAGGAUCACCCAUGUAUAGUUGAAGGAGCGACCAGAGGGUCAGGUAGGUCGCAGCACAUGGUGAAAACCCGUGUAUGCC [#1 Exclusion - Arginine A Attempt #21 (Inspired by Pi)]	40.4	33.4	61.7	49.1	27.6
GUCCAAAGGUCGGCCGCCACUGUAGAGUGUGUUCUUUCACAUGAGGAUCACCCAUGUUGUUAUUAUAGGACCGGGAUUGUAGGAC [#21 Exclusion Tryptophan B]	17.2		31.1	23.4	
GUCCACAUGAGGAUCACCCAUGUAAGUGGGCGAGGACCGGUACGGCCGCCACUCGACAUGUUGACGAAAAGUCAGCAUGAGGACA [#SwitchBubble 3 #GuTurnoff #Tail]	44.1	108	154	114	101
GUCCUCGUGUCCGGUUUAGCGCAAAGCGCACGAGGACCGGUACGGCCGCCACUCGAAACAUGAGGAUCACCCAUGUGAAGAAUAA [Design 1]	14.4	14.6	21.8	15.8	17.8
GUCUGUGUCUGAAGGAGCGACAUGAGGAUCACCCAUGUCUCCCGUUAUGGGAGUUCCUUAGGUCAGGUAGGUCGCAGACACAGAC [#1 Exclusion - Arginine B Attempt #27 (Inspired by Omei)]	110	123	164	187	107
GUGGCGAUCACGGCCGCCACUGAGCAGGUCGAGCUUGACAUGAGGAUCACCCAUGUCUGACGAUACAGGACCGGGUGAUCUCCGC [Titiinanon]	16.5	21.7	94.6	149	19.7
GUUGGACUUUCGGCCGCCACUGAGAGAGUCGUGUGAACAUGAGGAUCACCCAUGUAAUAUAUAUACAGGACCGGGAGGGUUGUAA [4.N]	8.94	11.3	22.2	19.7	11.3
GUUUAAAGGUCGGCCGCCACUGUAGGAUGUGUUCUUUCACAUGAGGAUCACCCAUGUUGUUAUUAUAGGACCGGGAUUGUAGGAC [39MS split4]	22.6	41.4	42.3	35.5	31.7
GUUUUAUACUCGGCCGCCACUGAGAGAGUCAUGUAAACAUGAGGAUCACCCAUGUAAUAUAUAUACAGGACCGGGAGUAGGGUAA [4.F]	10.1		16.1	12.2	
UAAAACAUGAGGAUCACCCAUGUAUUGAGUCGAGGACCGGUACGGCCGCCACUCGGCAAUAAUAACGACGCAUAGCAUGUAGGAA [theeternabot_sameState_MS2_Trp_A_41]	12.8		19.5	14.9	
UAAAACAUGAGGAUCACCCAUGUAUUUGAUACCAGAGUGAUGAUCCUCCCUUGGCAGCAAAUAACGCAUUGAUUACAAUGCGAAA [Mat - Same State Theophlline A - Mod of Eli - D28]	34.8		121		36
UAAAAUAUCUGGGUGUAGGUAAUAACAGAUACCAGCCAGAUAACUGGCCCUUGGCAGCUGAAAACAUGAGGAUCACCCAUGUAAA [TheoAS 22 #OpenEnded #Ms2Late]	28.1	30.7	50.3	236	28.6
UAAACUACACAUGAGGAUCACCCAUGUGGCCGAGGACCGGUACGGCCGCCACUCGUGUGUUAAUAAAAGAACCGCAAAGUUCUGU [Ticerear]	49.8		401	452	
UAACAUGAGGAUCACCCAUGUAUAGUCGAUACCAGCUCUGUCUAGAGCCCUUGGCAGCGACACUGGUAUCCAUGGGUGUGGAUAC [(Ms2)-(Theo)-(T)'-(M)'-(M)'']	20.1		98.4		103
UAACAUGAGGAUCACCCAUGUUUGAAGAAACGAGGACCGGUACGGCCGCCACUCGACGAGUGGAUGAAUAGUGGGCUUGUGUGCU [Same State Trp A GF10]	11		16	13.1	
